This assay concerns the target Pseudomonas aeruginosa QatC with C-terminal 6xHis tag (Pseudomonas aeruginosa). The assay is described as follows: mass photometry; Refeyn TwoMP; purified protein diluted to 200 nM in gel filtration buffer (20 mM HEPES-KOH pH 7.5, 250 mM KCl, 1 mM TCEP), 1 uL mixed into a 16 uL drop; QatA in the absence of DNA. For orientation: SEC sorts molecules by how far they enter the pores of the column.

Substance “Pseudomonas aeruginosa QatB (natural protein)” yielded a stoichiometry N of 1.

Broadly, the stoichiometry N is a count of units in the complex or per binding partner.

The record behind these values is publication PMC13279940.
